Data published in the Immune Epitope Database (IEDB).

Key:
Assay in all cases: IEDB peptide-MHC binding, purified MHC/competitive/radioactivity; filed as Kd, often an IC50 or EC50 that approximates it; ≥ and ≤ were set here for values at or beyond the usual limits of such assays
HLA-A*03:01 = molecular target: HLA-A*03:01
HLA-A*11:01 = molecular target: HLA-A*11:01
HLA-A*31:01 = molecular target: HLA-A*31:01
HLA-A*33:01 = molecular target: HLA-A*33:01
HLA-A*68:01 = molecular target: HLA-A*68:01
[1] = source organism: Vaccinia virus WR
[2] = source organism: SARS coronavirus Tor2
[3] = source organism: Mammarenavirus brazilense
[4] = source organism: Mammarenavirus juninense
[5] = source organism: Mammarenavirus whitewaterense
[6] = source organism: Mammarenavirus guanaritoense

Sequence	Kd (HLA-A*03:01; [1]) [nM]	Kd (HLA-A*11:01; [1]) [nM]	Kd (HLA-A*31:01; [1]) [nM]	Kd (HLA-A*33:01; [1]) [nM]	Kd (HLA-A*68:01; [1]) [nM]	other results
FVDINRNNK	281	50.8	2300	≥ 46800	25.1	–
GADPNACDK	≥ 37700	6240	3840	8360	90.6	–
GLLATNNVFR	–	–	–	–	–	Kd (HLA-A*03:01; [2]): 428 nM; Kd (HLA-A*11:01; [2]): 816 nM; Kd (HLA-A*31:01; [2]): 487 nM; Kd (HLA-A*33:01; [2]): 5920 nM; Kd (HLA-A*68:01; [2]): 794 nM
GSFCTQLNR	–	–	–	–	–	Kd (HLA-A*03:01; [2]): 1040 nM; Kd (HLA-A*11:01; [2]): 76.1 nM; Kd (HLA-A*31:01; [2]): 51.1 nM; Kd (HLA-A*33:01; [2]): ≥ 33100 nM; Kd (HLA-A*68:01; [2]): 229 nM
IFVDTMSIY	18300	921	6760	≥ 29100	882	–
IIKSDHEFVK	4270	443	15700	≥ 70000	1820	–
ISFKSINKVY	2530	12200	9890	≥ 63300	6590	–
ISKIYTLIYR	691	226	0.337	0.458	5.02	–
ITFLRPVLK	4.53	6.45	7.61	84.5	1.14	–
ITLKIIETY	≥ 78000	≥ 77900	751	≥ 77700	≥ 77700	–
IVTSLAIKNY	1110	51.7	8820	5680	1410	–
KCFGNTALAK	–	–	–	–	–	Kd (HLA-A*03:01; [3]): 830 nM; Kd (HLA-A*11:01; [3]): 8480 nM; Kd (HLA-A*31:01; [3]): 972 nM; Kd (HLA-A*33:01; [3]): ≥ 70000 nM; Kd (HLA-A*68:01; [3]): ≥ 22500 nM
KCFGNTAVAK	–	–	–	–	–	Kd (HLA-A*03:01; [4]): 579 nM; Kd (HLA-A*11:01; [4]): 6460 nM; Kd (HLA-A*31:01; [4]): 181 nM; Kd (HLA-A*33:01; [4]): 1470 nM; Kd (HLA-A*68:01; [4]): 18800 nM
KIGHHVELQH	–	–	–	–	–	Kd (HLA-A*03:01; [5]): ≥ 47100 nM; Kd (HLA-A*11:01; [5]): ≥ 69700 nM; Kd (HLA-A*31:01; [5]): 25.2 nM; Kd (HLA-A*33:01; [5]): ≥ 49800 nM; Kd (HLA-A*68:01; [5]): ≥ 70100 nM
KLQARNIQK	8.03	17.8	13.5	927	169	–
KVSAQNISFK	5070	131	433	3320	3380	–
LAIKNYYRK	≥ 45700	75.9	783	1440	12.7	–
LFLLFLEITY	1960	3720	3460	9640	274	–
LLFADINGK	–	–	–	–	–	Kd (HLA-A*03:01; [2]): 30.8 nM; Kd (HLA-A*11:01; [2]): 8.81 nM; Kd (HLA-A*31:01; [2]): 2560 nM; Kd (HLA-A*33:01; [2]): ≥ 50900 nM; Kd (HLA-A*68:01; [2]): 120 nM
LLGDSDSVAK	203	584	3580	≥ 70000	10900	–
LTALLSCIR	≥ 78000	914	244	1100	7.66	–
LTNKHCLNNY	1380	2070	4420	≥ 66000	≥ 21200	–
MIIGHIGHHY	47	103	151	≥ 55400	19.3	–
MMFINSTCY	21.2	159	129	3930	145	–
MMNRDKIPIY	1030	3800	10400	≥ 70000	≥ 70200	–
MSHVKSVTK	18.6	8.05	20.1	1930	9	–
MSMGDIITY	134	5.67	8570	13300	1.85	–
NAPIKEFKAK	15600	≥ 27700	8830	3310	187	–

Sequence	Kd (HLA-A*03:01; [1]) [nM]	Kd (HLA-A*11:01; [1]) [nM]	Kd (HLA-A*31:01; [1]) [nM]	Kd (HLA-A*33:01; [1]) [nM]	Kd (HLA-A*68:01; [1]) [nM]	other results
NFFTELENK	≥ 69500	1690	7320	11300	1280	–
NIILSKIPY	1180	552	14400	9760	778	–
NISIIVLFQR	907	670	33.6	1400	3.84	–
NIVTFINDY	≥ 78000	≥ 45900	14600	≥ 77700	535	–
NLDPDNKMSY	950	582	≥ 41300	≥ 65800	1460	–
NTMCTEETKR	≥ 32200	6410	13300	4210	17.8	–
NVKKKNEGK	6520	≥ 29700	≥ 20400	17600	142	–
NYVHCFRKPH	–	–	–	–	–	Kd (HLA-A*03:01; [6]): ≥ 70000 nM; Kd (HLA-A*11:01; [6]): ≥ 69700 nM; Kd (HLA-A*31:01; [6]): 12000 nM; Kd (HLA-A*33:01; [6]): 1430 nM; Kd (HLA-A*68:01; [6]): ≥ 70100 nM
PVSMTYLYNK	1190	107	6150	≥ 70000	12900	–
QFANVISKIY	3390	8660	1140	1200	1950	–
QISRVNDLNR	1940	335	122	913	88	–
RFVKFNDYR	19800	14800	≤ 1	237	38.2	–
RLGLVLDDY	11.1	3560	≥ 77900	≥ 77700	≥ 44500	–
RVVVQIDPEY	14200	≥ 23400	≥ 70000	≥ 70000	1190	–
SAEDNYLAK	≥ 26300	56.1	≥ 53500	≥ 77700	11400	–
SAGFSLWIYK	–	–	–	–	–	Kd (HLA-A*03:01; [2]): 75.3 nM; Kd (HLA-A*11:01; [2]): 0.0935 nM; Kd (HLA-A*31:01; [2]): 52.1 nM; Kd (HLA-A*33:01; [2]): 3430 nM; Kd (HLA-A*68:01; [2]): 31.1 nM
SCSYKIGHH	–	–	–	–	–	Kd (HLA-A*03:01; [5]): ≥ 78000 nM; Kd (HLA-A*11:01; [5]): ≥ 64800 nM; Kd (HLA-A*31:01; [5]): ≥ 45800 nM; Kd (HLA-A*33:01; [5]): ≥ 77700 nM; Kd (HLA-A*68:01; [5]): ≥ 77600 nM
SFKSINKVY	1830	2770	2130	≥ 77700	6900	–
SIMETIDPVY	222	4.36	9760	≥ 36600	29	–
SINSEYIESK	7720	55.4	≥ 70000	≥ 70000	2580	–
SLVKKNKKR	≥ 78000	≥ 77900	≥ 77900	≥ 77700	≥ 77700	–
SMDVLAEKK	911	25.7	≥ 22600	≥ 77700	1270	–
SRIFEELVWK	–	–	–	–	–	Kd (HLA-A*03:01; [5]): 200 nM; Kd (HLA-A*11:01; [5]): 259 nM; Kd (HLA-A*31:01; [5]): 3640 nM; Kd (HLA-A*33:01; [5]): ≥ 52000 nM; Kd (HLA-A*68:01; [5]): 477 nM
SSKGLACYR	12800	80.4	37.6	25.6	5.33	–
SVKTQFNYFK	–	–	–	–	–	Kd (HLA-A*03:01; [2]): 144 nM; Kd (HLA-A*11:01; [2]): 21.1 nM; Kd (HLA-A*31:01; [2]): 24.1 nM; Kd (HLA-A*33:01; [2]): 808 nM; Kd (HLA-A*68:01; [2]): 80 nM
SVPLPCQLMY	413	38	≥ 23200	≥ 53100	14400	–
TAIAKCNLDH	–	–	–	–	–	Kd (HLA-A*03:01; [5]): ≥ 70000 nM; Kd (HLA-A*11:01; [5]): ≥ 69700 nM; Kd (HLA-A*31:01; [5]): 929 nM; Kd (HLA-A*33:01; [5]): ≥ 34200 nM; Kd (HLA-A*68:01; [5]): 7070 nM
